Experimental data: the supplement of paper PMC5998384

Tested on: HeLa Kyoto
Experiment: melting temperature (median over replicates), in situ; higher = more thermally stable
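Also: HeLa Kyoto cells synchronized by double thymidine or nocodazole block, proteins quantified by TMT10plex mass spectrometry, three independent biological replicates.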

| Sequence | melting temperature (cell cycle stage: G1/S) [°C] | melting temperature (cell cycle stage: mitosis) [°C] |
| --- | --- | --- |
| MAGYEYVSPEQLAGFDKYKYSAVDTNPLSLYVMHPFWNTIVKVFPTWLAPNLITFSGFLLVVFNFLLMAYFDPDFYASAPGHKHVPDWVWIVVGILNFVAYTLDGVDGKQARRTNSSTPLGELFDHGLDSWSCVYFVVTVYSIFGRGSTGVSVFVLYLLLWVVLFSFILSHWEKYNTGILFLPWGYDISQVTISFVYIVTAVVGVEAWYEPFLFNFLYRDLFTAMIIGCALCVTLPMSLLNFFRSYKNNTLKLNSVYEAMVPLFSPCLLFILSTAWILWSPSDILELHPRVFYFMVGTAFANSTCQLIVCQMSSTRCPTLNWLLVPLFLVVLVVNLGVASYVESILLYTLTTAFTLAHIHYGVRVVKQLSSHFQIYPFSLRKPNSDULGMEEKNIGL [EPT1] | 52.8 |  |
| MAIFRQLSLGAKATLAAVTVFVSMIASRSYLAESLELRAWRWLLRLQLALFVNSLLLIGSLYIWRSTVSNLCHSPAAESTCFQLWKVVVLAFLALAHSSFFTMFFLVAEEPYLFSLAAYSCLGAYIIMLFFLFILSGMEQAYQLLAWRSGRVVGSLEKTRKLVLRPALAVGVTAVLSVAGILNAAQPPAVKTVEVPIHQLPASMNNLKIVLLSDIHLGPTVGRTKMEMFVRMVNVLEPDITVIVGDLSDSEASVLRTAVAPLGQLHSHLGAYFVTGNHEYYTSDVSNWFALLESLHVQPLHNENVKISATRAQRGGGGSGSGSEDEDWICLAGVDDIEADILHYSGHGMDLDKALEGCSPDHTIILLAHQPLAAKRALQARPDINLILSGHTHAGQIFPLNVAAYLLNPFFAGLYQVAQATFVYVSPGTAYYGIPMRLGSRAEITELILQRSP [TMPPE] | 53.6 | 53.6 |
| MALNGAEVDDFSWEPPTEAETKVLQARRERQDRISRLMGDYLLRGYRMLGETCADCGTILLQDKQRKIYCVACQELDSDVDKDNPALNAQAALSQAREHQLASASELPLGSRPAPQPPVPRPEHCEGAAAGLKAAQGPPAPAVPPNTDVMACTQTALLQKLTWASAELGSSTSLETSIQLCGLIRACAEALRSLQQLQH [SSSCA1] | 53.3 | 53.5 |
| MAPGRAVAGLLLLAAAGLGGVAEGPGLAFSEDVLSVFGANLSLSAAQLQHLLEQMGAASRVGVPEPGQLHFNQCLTAEEIFSLHGFSNATQITSSKFSVICPAVLQQLNFHPCEDRPKHKTRPSHSEVWGYGFLSVTIINLASLLGLILTPLIKKSYFPKILTFFVGLAIGTLFSNAIFQLIPEAFGFDPKVDSYVEKAVAVFGGFYLLFFFERMLKMLLKTYGQNGHTHFGNDNFGPQEKTHQPKALPAINGVTCYANPAVTEANGHIHFDNVSVVSLQDGKKEPSSCTCLKGPKLSEIGTIAWMITLCDALHNFIDGLAIGASCTLSLLQGLSTSIAILCEEFPHELGDFVILLNAGMSTRQALLFNFLSACSCYVGLAFGILVGNNFAPNIIFALAGGMFLYISLADMFPEMNDMLREKVTGRKTDFTFFMIQNAGMLTGFTAILLITLYAGEIELE [SLC39A8] | 58.6 |  |
| MASKTKASEALKVVARCRPLSRKEEAAGHEQILTMDVKLGQVTLRNPRAAPGELPKTFTFDAVYDASSKQADLYDETVRPLIDSVLQGFNGTVFAYGQTGTGKTYTMQGTWVEPELRGVIPNAFEHIFTHISRSQNQQYLVRASYLEIYQEEIRDLLSKEPGKRLELKENPETGVYIKDLSSFVTKNVKEIEHVMNLGNQTRAVGSTHMNEVSSRSHAIFIITVECSERGSDGQDHIRVGKLNLVDLAGSERQNKAGPNTAGGAATPSSGGGGGGGGSGGGAGGERPKEASKINLSLSALGNVIAALAGNRSTHIPYRDSKLTRLLQDSLGGNAKTIMVATLGPASHSYDESLSTLRFANRAKNIKNKPRVNEDPKDTLLREFQEEIARLKAQLEKRGMLGKRPRRKSSRRKKAVSAPPGYPEGPVIEAWVAEEEDDNNNNHRPPQPILESALEKNMENYLQEQKERLEEEKAAIQDDRSLVSEEKQKLLEEKEKMLEDLRREQQATELLAAKYKAMESKLLIGGRNIMDHTNEQQKMLELKRQEIAEQKRREREMQQEMMLRDEETMELRGTYTSLQQEVEVKTKKLKKLYAKLQAVKAEIQDQHDEYIRVRQDLEEAQNEQTRELKLKYLIIENFIPPEEKNKIMNRLFLDCEEEQWKFQPLVPAGVSSSQMKKRPTSAVGYKRPISQYARVAMAMGSHPRYRAENIMFLELDVSPPAVFEMEFSHDQEQDPRALHMERLMRLDSFLERPSTSKVRKSRSWCQSPQRPPPSTTHASLASASLRPATVADHE [KIF3C] |  | 50.4 |
| MCVRSCFQSPRLQWVWRTAFLKHTQRRHQGSHRWTHLGGSTYRAVIFDMGGVLIPSPGRVAAEWEVQNRIPSGTILKALMEGGENGPWMRFMRAEITAEGFLREFGRLCSEMLKTSVPVDSFFSLLTSERVAKQFPVMTEAITQIRAKGLQTAVLSNNFYLPNQKSFLPLDRKQFDVIVESCMEGICKPDPRIYKLCLEQLGLQPSESIFLDDLGTNLKEAARLGIHTIKVNDPETAVKELEALLGFTLRVGVPNTRPVKKTMEIPKDSLQKYLKDLLGIQTTGPLELLQFDHGQSNPTYYIRLANRDLVLRKKPPGTLLPSAHAIEREFRIMKALANAGVPVPNVLDLCEDSSVIGTPFYVMEYCPGLIYKDPSLPGLEPSHRRAIYTAMNTVLCKIHSVDLQAVGLEDYGKQGDYIPRQVRTWVKQYRASETSTIPAMERLIEWLPLHLPRQQRTTVVHGDFRLDNLVFHPEEPEVLAVLDWELSTLGDPLADVAYSCLAHYLPSSFPVLRGINDCDLTQLGIPAAEEYFRMYCLQMGLPPTENWNFYMAFSFFRVAAILQGVYKRSLTGQASSTYAEQTGKLTEFVSNLAWDFAVKEGFRVFKEMPFTNPLTRSYHTWARPQSQWCPTGSRSYSSVPEASPAHTSRGGLVISPESLSPPVRELYHRLKHFMEQRVYPAEPELQSHQASAARWSPSPLIEDLKEKAKAEGLWNLFLPLEADPEKKYGAGLTNVEYAHLCELMGTSLYAPEVCNCSAPDTGNMELLVRYGTEAQKARWLIPLLEGKARSCFAMTEPQVASSDATNIEASIREEDSFYVINGHKWWITGILDPRCQLCVFMGKTDPHAPRHRQQSVLLVPMDTPGIKIIRPLTVYGLEDAPGGHGEVRFEHVRVPKENMVLGPGRGFEIAQGRLGPGRIHHCMRLIGFSERALALMKARVKSRLAFGKPLVEQGTVLADIAQSRVEIEQARLLVLRAAHLMDLAGNKAAALDIAMIKMVAPSMASRVIDRAIQAFGAAGLSSDYPLAQFFTWARALRFADGPDEVHRATVAKLELKHRI [ACAD10] |  | 50.7 |
| MDCEVNNGSSLRDECITNLLVFGFLQSCSDNSFRRELDALGHELPVLAPQWEGYDELQTDGNRSSHSRLGRIEADSESQEDIIRNIARHLAQVGDSMDRSIPPGLVNGLALQLRNTSRSEEDRNRDLATALEQLLQAYPRDMEKEKTMLVLALLLAKKVASHTPSLLRDVFHTTVNFINQNLRTYVRSLARNGMD [BID] | 52.8 | 55.5 |
| MENGAVYSPTTEEDPGPARGPRSGLAAYFFMGRLPLLRRVLKGLQLLLSLLAFICEEVVSQCTLCGGLYFFEFVSCSAFLLSLLILIVYCTPFYERVDTTKVKSSDFYITLGTGCVFLLASIIFVSTHDRTSAEIAAIVFGFIASFMFLLDFITMLYEKRQESQLRKPENTTRAEALTEPLNA [CMTM6] | 55.6 |  |
| MESMAVATDGGERPGVPAGSGLSASQRRAELRRRKLLMNSEQRINRIMGFHRPGSGAEEESQTKSKQQDSDKLNSLSVPSVSKRVVLGDSVSTGTTDQQGGVAEVKGTQLGDKLDSFIKPPECSSDVNLELRQRNRGDLTADSVQRGSRHGLEQYLSRFEEAMKLRKQLISEKPSQEDGNTTEEFDSFRIFRLVGCALLALGVRAFVCKYLSIFAPFLTLQLAYMGLYKYFPKSEKKIKTTVLTAALLLSGIPAEVINRSMDTYSKMGEVFTDLCVYFFTFIFCHELLDYWGSEVP [CAMLG] | 57.8 |  |
| MGFIFSKSMNESMKNQKEFMLMNARLQLERQLIMQSEMRERQMAMQIAWSREFLKYFGTFFGLAAISLTAGAIKKKKPAFLVPIVPLSFILTYQYDLGYGTLLERMKGEAEDILETEKSKLQLPRGMITFESIEKARKEQSRFFIDK [PLGRKT] | 56.5 | 55.5 |
| MGGCVGAQHDSSGSLNENSEGTGVALGRNQPLKKEKPKWKSDYPMTDGQLRSKRDEFWDTAPAFEGRKEIWDALKAAAHAFESNDHELAQAIIDGANITLPHGALTECYDELGNRYQLPVYCLAPPINMIEEKSDIETLDIPEPPPNSGYECQLRLRLSTGKDLKLVVRSTDTVFHMKRRLHAAEGVEPGSQRWFFSGRPLTDKMKFEELKIPKDYVVQVIVSQPVQNPTPVEN [UBTD2] |  | 53.7 |
| MGRLLRAARLPPLLSPLLLLLVGGAFLGACVAGSDEPGPEGLTSTSLLDLLLPTGLEPLDSEEPSETMGLGAGLGAPGSGFPSEENEESRILQPPQYFWEEEEELNDSSLDLGPTADYVFPDLTEKAGSIEDTSQAQELPNLPSPLPKMNLVEPPWHMPPREEEEEEEEEEEREKEEVEKQEEEEEEELLPVNGSQEEAKPQVRDFSLTSSSQTPGATKSRHEDSGDQASSGVEVESSMGPSLLLPSVTPTTVTPGDQDSTSQEAEATVLPAAGLGVEFEAPQEASEEATAGAAGLSGQHEEVPALPSFPQTTAPSGAEHPDEDPLGSRTSASSPLAPGDMELTPSSATLGQEDLNQQLLEGQAAEAQSRIPWDSTQVICKDWSNLAGKNYIILNMTENIDCEVFRQHRGPQLLALVEEVLPRHGSGHHGAWHISLSKPSEKEQHLLMTLVGEQGVVPTQDVLSMLGDIRRSLEEIGIQNYSTTSSCQARASQVRSDYGTLFVVLVVIGAICIIIIALGLLYNCWQRRLPKLKHVSHGEELRFVENGCHDNPTLDVASDSQSEMQEKHPSLNGGGALNGPGSWGALMGGKRDPEDSDVFEEDTHL [PODXL2] | 54 |  |
| MLGSRAAGFARGLRAVALAWLPGWRGRSFALARAAGAPHGGDLQPPACPEPRGRQLSLSAAAVVDSAPRPLQPYLRLMRLDKPIGTWLLYLPCTWSIGLAAEPGCFPDWYMLSLFGTGAILMRGAGCTINDMWDQDYDKKVTRTANRPIAAGDISTFQSFVFLGGQLTLALGVLLCLNYYSIALGAGSLLLVITYPLMKRISYWPQLALGLTFNWGALLGWSAIKGSCDPSVCLPLYFSGVMWTLIYDTIYAHQDKRDDVLIGLKSTALRFGENTKPWLSGFSVAMLGALSLVGVNSGQTAPYYAALGAVGAHLTHQIYTLDIHRPEDCWNKFISNRTLGLIVFLGIVLGNLWKEKKTDKTKKGIENKIEN [COQ2] | 55.1 |  |
| MLLATLLLLLLGGALAHPDRIIFPNHACEDPPAVLLEVQGTLQRPLVRDSRTSPANCTWLILGSKEQTVTIRFQKLHLACGSERLTLRSPLQPLISLCEAPPSPLQLPGGNVTITYSYAGARAPMGQGFLLSYSQDWLMCLQEEFQCLNHRCVSAVQRCDGVDACGDGSDEAGCSSDPFPGLTPRPVPSLPCNVTLEDFYGVFSSPGYTHLASVSHPQSCHWLLDPHDGRRLAVRFTALDLGFGDAVHVYDGPGPPESSRLLRSLTHFSNGKAVTVETLSGQAVVSYHTVAWSNGRGFNATYHVRGYCLPWDRPCGLGSGLGAGEGLGERCYSEAQRCDGSWDCADGTDEEDCPGCPPGHFPCGAAGTSGATACYLPADRCNYQTFCADGADERRCRHCQPGNFRCRDEKCVYETWVCDGQPDCADGSDEWDCSYVLPRKVITAAVIGSLVCGLLLVIALGCTCKLYAIRTQEYSIFAPLSRMEAEIVQQQAPPSYGQLIAQGAIPPVEDFPTENPNDNSVLGNLRSLLQILRQDMTPGGGPGARRRQRGRLMRRLVRRLRRWGLLPRTNTPARASEARSQVTPSAAPLEALDGGTGPAREGGAVGGQDGEQAPPLPIKAPLPSASTSPAPTTVPEAPGPLPSLPLEPSLLSGVVQALRGRLLPSLGPPGPTRSPPGPHTAVLALEDEDDVLLVPLAEPGVWVAEAEDEPLLT [LRP10] | 54.7 |  |
| MNQENPPPYPGPGPTAPYPPYPPQPMGPGPMGGPYPPPQGYPYQGYPQYGWQGGPQEPPKTTVYVVEDQRRDELGPSTCLTACWTALCCCCLWDMLT [CYSTM1] | 59 | 52.8 |
